Experimental data published in patent publication US20170298096A1 (CANIMGUIDE THERAPEUTICS, published 2017).
Values belong to the binder of their own block, whether it stands above or below them. Positions of bridges follow the written chain, without caps; N, C: chain ends. No end group written: not given here.

Experiments:
[1] = target: T1, His-tagged P3028 peptide (PGE73) (human); assay: positional scan, PEPSCAN ELISA on chip
T1 construct: also called His-tag-P3028; not shown: His-tag
T1 peptide: VFDEFKPLVEEPQNLIK

His-tagged P3028 [2] = target: T2, His-tagged P3028 (human, also: His-tag, terminus and sequence not given here); assay: positional scan, ELISA on chip with His-tag labeled P3028
T2 construct: used in solution in the PEPSCAN (rampo) ELISA; also called PGE73; His-tag-P3028; not shown: His tag
T2 peptide: VFDEFKPLVEEPQNLIK

His-tagged P3028 [3] = target: T2, His-tagged P3028; assay: positional scan / PEPSCAN ELISA
His-tagged P3028 [4] = target: T3, His-tagged P3028 (human, not fully specified); assay: chip ELISA with His-tag labelled P3028
T3 construct: the tag is put first after 'PGE73=His-tag-P3028'; also called PGE73; not shown: His-tag
T3 peptide: {His‑tag}-VFDEFKPLVEEPQNLIK

His-tagged P3028 [5] = target: T3, His-tagged P3028; assay: chip ELISA with His-tag labelled P3028, positional scan
Procedure: (§1) Positional scans were performed in each position of the lead cyclic peptide was replaced with each of the other 19 L-amino acids.

[6] = target: T4, fusion protein of CD25 and the Fc-part of IgG (human, UniProt P01589 22-240, limits assumed); assay: ELISA, CD25-Fc on protein G coated plates, biotinylated IL-2 with or without P3028
T4 construct: also called rhuIL-2R alpha; rhuIL-2R
T4 sequence: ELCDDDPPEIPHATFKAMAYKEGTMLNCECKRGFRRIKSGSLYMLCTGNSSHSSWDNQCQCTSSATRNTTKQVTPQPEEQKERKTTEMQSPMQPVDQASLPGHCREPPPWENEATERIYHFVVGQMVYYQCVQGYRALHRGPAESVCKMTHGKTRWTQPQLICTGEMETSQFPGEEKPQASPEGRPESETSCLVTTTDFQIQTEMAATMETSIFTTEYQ

His-tagged P3028 [7] = target: T2, His-tagged P3028; assay: ELISA on chip with His-tag labeled P3028
Procedure: as §1

B2: cyclic peptide CLRLIVMCG (peptide)
peptide: CLRLIVMCG
modifications: bridge 1-8 (inferred)
- binding result (His-tagged P3028 [2]): binds

B6: P3028 (peptide)
peptide: VFDEFKPLVEEPQNLIK
- binding result [6]: binds

B7: cyclic peptide CLRLNVFCG (peptide)
peptide: CLRLNVFCG
modifications: bridge 1-8 (inferred)
- binding result (His-tagged P3028 [2]): binds

B8: lead cyclic peptide CLALNVMCG (peptide)
peptide: CLALNVMCG
modifications: bridge 1-8 (inferred)
notes: also called lead looped peptide
- binding result (His-tagged P3028 [7]): binds

Now from value to binder:

- binding result [1]: binds
B1: peptide 32814 (peptide)
peptide: RKLDTFFVKLSLFTERRR
notes: K1R and two added C-terminal R against P28R

- binding result (His-tagged P3028 [3]): binds
B3: P28 core (peptide)
peptide: FFVKLS
notes: also called peptide 32230; FFVKLS

- binding result (His-tagged P3028 [4]): binds
B4: cyclic peptide CLALNVMCG (peptide)
peptide: CLALNVMCG
modifications: bridge 1-8 (inferred); not fully specified
notes: also called lead cyclic peptide; lead looped peptide

- binding result (His-tagged P3028 [5]): binds
B5: cyclic peptide CLRLIVMCG (peptide)
peptide: CLRLIVMCG
modifications: bridge 1-8 (inferred); not fully specified

- binding result [1]: binds
B9: peptide 30680 (peptide)
peptide: KKLDTVMVKLQLMTER
notes: Four changes against P28R
